Source: US11866760B2, “Microorganisms for the production of insect pheromones and related compounds” (Provivi, Inc., priority 2017, dated 2024)
Changes are numbered by the printed parent chain. In names and notes the source's numbering stands.

T1: ALE1p (=LCA1p) (Saccharomyces cerevisiae, UniProt Q08548)
T1 sequence (Q08548 1-619): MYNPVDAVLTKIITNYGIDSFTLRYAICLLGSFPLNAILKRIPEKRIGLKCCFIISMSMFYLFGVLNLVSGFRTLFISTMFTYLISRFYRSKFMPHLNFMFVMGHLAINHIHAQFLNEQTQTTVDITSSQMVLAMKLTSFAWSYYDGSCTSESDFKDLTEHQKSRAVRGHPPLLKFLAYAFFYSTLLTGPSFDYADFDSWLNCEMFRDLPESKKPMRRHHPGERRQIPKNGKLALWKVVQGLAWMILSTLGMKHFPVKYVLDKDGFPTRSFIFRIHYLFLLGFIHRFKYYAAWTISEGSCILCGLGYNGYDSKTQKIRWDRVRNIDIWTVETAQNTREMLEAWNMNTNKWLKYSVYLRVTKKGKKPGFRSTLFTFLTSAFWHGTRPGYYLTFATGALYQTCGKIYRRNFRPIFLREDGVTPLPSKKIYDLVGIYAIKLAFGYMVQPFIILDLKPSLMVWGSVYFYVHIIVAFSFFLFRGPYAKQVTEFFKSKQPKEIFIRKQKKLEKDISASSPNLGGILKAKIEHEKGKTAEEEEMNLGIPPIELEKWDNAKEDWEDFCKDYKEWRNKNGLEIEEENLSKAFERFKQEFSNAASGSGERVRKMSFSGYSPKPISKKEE

B1: HaFAR (S418A) (protein)
chain: MVVLTSKETKPSVAEFYAGKSVFITGGTGFLGKVFIEKLLYSCPDIENIYMLIREKKGLSVSERIKQFLDDPLFTRLKDKRPADLEKIVLIPGDITAPDLGINSENEKMLIEKVSVIIHSAATVKFNEPLPTAWKINVEGTRMMLALSRRMKRIEVFIHISTAYTNTNREVVDEILYPAPADIDQVHQYVKDGISEEDTEKILNGRPNTYTFTKALTEHLVAENQAYVPTIIVRPSVVAAIKDEPLKGWLGNWFGATGLTVFTAKGLNRVIYGHSSYIVDLIPVDYVANLVIAAGAKSSKSTELKVYNCCSSSCNPVTIGTLMSMFADDAIKQKSYAMPLPGWYIFTKYKWLVLLLTFLFQVIPAYVTDLSRHLIGKSPRYIKLQSLVNQTRSSIDFFTNHSWVMKADRVRELYASLAPADKYLFPCDPTDINWTHYIQDYCWGVRHFLEKKSYE
B2: HaFAR (S195A) (protein)
chain: B1 chain with S195A, A418S

How the values were obtained:
ALE1p (=LCA1p) = biological target: T1, ALE1p (=LCA1p); conditions: Chen Q et al. 2007; cited from earlier work
methyl palmitate [1] = assay: HaFAR mutant library cultivation in shake flasks; format: cell-based, Yarrowia lipolytica; conditions: shake flask experiments, 10 g/L methyl palmitate
Method: In a first step a shake flask experiment of the respective strains was performed to analyze fatty alcohol and fatty acid formation over time. The best performing clone of the strains expressing HaFAR, HaFAR S195A and HaFAR S418A were tested. 10 mL YPD was inoculated from patches of individual clones and incubated for 24 h at 28° C., 250 rpm in a 125 mL shake flask. Next, 25 mL YPD were inoculated with 5 mL starter culture in 500 mL shake flasks and incubated for 24 h at 28° C., 250 rpm. The cells were harvested and the pellets were resuspended in 15 mL S2 media and 10 g/L methyl palmitate was added. OD600 was measured and subsequently methyl palmitate was added. […] 4×0.5 mL samples were taken every 24 h and stored at −20° C. until analyzed according to a previously established standard protocol (FIG. 47 and FIG. 48). To improve sampling and reduce the standard deviation, samples were transferred directly into GC crimp vials and stored until analyzed.
Thus, sampling was reduced to 20 h. In previous 24 well plate bioconversion experiments the measured biomass was ˜2× higher compared to the shake flask experiment. […] The cells were harvested and the pellets were resuspended in 10 mL S2 media and 10 g/L, OD600 was measured and subsequently methyl palmitate was added. […] 4×0.5 mL samples were taken and analyzed according to a previously established standard protocol (FIG. 49). […]

methyl palmitate [2] = assay: HaFAR mutant library cultivation in 24 well plates in Y. lipolytica SPV603; format: cell-based, Yarrowia lipolytica; conditions: second FAR copy in SPV603, 24 well plates
Method: Four individual clones of positive integrants were tested. Cultivation was performed in 24 well plates. Briefly, 2 mL YPD was inoculated from patches of individual clones and incubated for 24 h at 28° C., 1000 rpm. After 24 h OD600 was measured and the cells were centrifuged at 1000 rpm (Table 23). The cell pellets were resuspended in 1 mL S2 media and 10 g/L methyl palmitate was added. The cells were incubated for 18 h at 28° C., 1000 rpm. Cultivations were stored at −20° C. until analyzed. Extraction and analysis was performed according to previously established standard protocols using GC-FID.
In a first round four individual isolate from each transformation was tested. Cultivation was performed in 24 well plates. 2 mL YPD was inoculated from patches of individual clones and incubated for 24 h at 28° C., 1000 rpm. After 24 h OD600 was measured and the cells were centrifuged at 1000 rpm. The cell pellets were resuspended in 1 mL S2 media and 10 g/L methyl palmitate was added. The cells were incubated for 24 h at 28° C., 1000 rpm. Cultivations were stored at −20° C. until analyzed. Next, four clones of the best performing positive integrant were tested. Cultivation was performed in 24 well plates. 2 mL YPD was inoculated from patches of individual clones and incubated for ˜28 h at 28° C., 1000 rpm. After 28 h OD600 was measured and the cells were centrifuged at 1000 rpm. The cell pellets were resuspended in 1 mL S2 media and 10 g/L methyl palmitate was added. The cells were incubated for 18 h at 28° C., 1000 rpm. Cultivations were stored at −20° C. until analyzed.
Cell pellets were resuspended with 500 μL 5% NaOH (in methanol) then heated for 1 hour at 85° C. Samples were cooled down and then acidified by adding 400 μL 5N HCl. Next, 500 μL chloroform (containing 1 mM C17:0 heptadecanoate internal standard) were added to samples. Samples were mixed vigorously then spun down for 2 minutes at 13,000 RPM using a table top centrifuge. 450 μL chloroform were transferred to a new vial then evaporated at 85° C. for ˜15 minutes. Samples were then resuspended in 50 μL BSTFA (and were now ready for GC analysis). After analysis of the fatty alcohols samples were diluted ˜1:10 and rerun on the GC to improve peak separation of the fatty acid peaks.
All quantifications were based on the concentration of the internal standard. The concentration of the internal standard C17ME is 1 mM. The final concentration of fatty alcohols as well as fatty acids were calculated based on the effective carbon number compared to the internal standard.

| Molecule | inhibitory concentration (ALE1p (=LCA1p)) | Z11-16OH titer (methyl palmitate [1]) | Z11-16OH titers compared to the HaFAR double copy strain (methyl palmitate [2]) |
| --- | --- | --- | --- |
| [Zn+2] [Zn2+] | above 0.1 mM | – | – |
| B1 | – | ~80 mg/L | distinct increase of Z11-16OH titers |
| B2 | – | ~120 mg/L | distinct increase of Z11-16OH titers |
